Molecular target: CgIgR (native, oyster hemocytes) (Crassostrea gigas (endogenous in oyster hemocytes))
Assay: cross-linking

stoichiometry N: 2
Substance: CgIgR (native, oyster hemocytes) (receptor)
